Test results as given in paper PMC10936184.

Target: MipA-His6 (Pseudomonas aeruginosa)
Experiment: nano-DSF; isothermal analysis with FoldAffinity: MipA-His6 (5 µM) incubated for 2 h at room temperature with PMB or PME from 76 nM up to 2.5 mM; one site model; fits at 51°C, 52°C and 53°C

Substance | Kd [µM]
polymyxin E (peptide) | 2.8 to 3.4
polymyxin B (peptide) | 8.4 to 10
